The values below come from patent US20260242450A1.

Positions count from the first letter of the chain named. Some results are limits rather than exact numbers.

For assay [1], the target named is HIV-1 envelope proteins of the panel of 12 global reference pseudovirus strains of HIV-1 ("global panel").
Assay [2] concerns the target HIV-1 envelope proteins of the panel of 8 pseudoviruses insensitive against neutralization by CD4bs bNAbs (constituents of the 119 multiclade panel).
The target in assay [3] is HIV-1 envelope proteins of the multiclade panel of 119 pseudoviruses.
In assay [4] the target is HIV-1 envelope proteins of the panel of 185 pseudoviruses generated from virus sequences obtained from the Antibody Mediated Prevention (AMP) trials.
Assay [5] deals with HIV-1 envelope proteins of the panel of 9 pseudoviruses resistant against CD4bs bNAbs (constituents of the 119 multiclade and Subtype C panels).
For assay [6], the target named is HIV-1 envelope proteins of the panel of 7 pseudoviruses selected from the "Resistant panel to CD4bs bNAbs".
The target in assay [7] is HIV-1 envelope proteins of the panel of 100 clade C HIV-1 pseudoviruses (Subtype C panel).

B1: 05_C07 (antibody, V domains shown)
VH: HVQLWQSGAEVKKPGASVKISCSAWGFGTRSGYTFRDYRIHWVRQVPRQGFEWMGHLHPAYGAVNYARQFQGRIIMTREVSFDGSGGTVYMELRSLRSDDTATYYCVTHKLYDGEDASDLTWRLDPWGQGTRVTVSS
VL: GVSLTQSPASLCASVGDRVTFTCQASQDITNAINWYQLRPGKTPKLMIHDGSTLRRGVPSRFAGSGFGTRFTFTIDNLQPEDLATYFCQHYEFFPPAGTQVDFN
For the molecule B1, in assay [1], the geometric mean IC50, TZM-bl cell pseudovirus neutralization assay was under 0.05 µg/mL and the neutralizing activity, TZM-bl cell pseudovirus neutralization assay (breadth) turned out to be 100%.

B2: 01_B01 (antibody, V domains shown)
VH: HVQLWQSGAEVKKPGASVKISCAAWGFGTTSGYSFRDYRIHWVRQVPGQGFQWMGHIQPRYGAVNYAHQFQGRITMTREVSFDASGGTAYMELRSLRSDDTATYYCVTHKLYDGEDASDLAWRLDPWGQGTRVTVSS
VL: B1 VL with S3H, C12S, S65G, R70K, D102E, F103L
With B2, in assay [1], the geometric mean IC50, TZM-bl cell pseudovirus neutralization assay is under 0.05 µg/mL and the neutralizing activity, TZM-bl cell pseudovirus neutralization assay (breadth) was 100%.

B3: 01_D03 (antibody, V domains shown)
VH: B2 VH with A23S, I40V, Q45H, V46I, P47A, I57M, H68R, T103V, A121T, T134I
VL: B1 VL with S3H, C12S, R70K, A97V, D102E, F103L
Take B3: in assay [1], the geometric mean IC50, TZM-bl cell pseudovirus neutralization assay came to 0.021 µg/mL and the neutralizing activity, TZM-bl cell pseudovirus neutralization assay (breadth) worked out at 100%. This molecule had a neutralizing activity, TZM-bl cell pseudovirus neutralization assay (breadth) in assay [2] of 88%.

B4: 04_A06 (antibody, V domains shown)
VH: SVRLDQSGTAVKKPGASVRVSCRAPDSFTVYRPRLSAYFIGEFNIHWLRQAPGQGLEWLGFVNIFRGAVKYSSRFQGRITITRDTSSETSYLDLGALKADDTATYYCAWDKNVDDNPWRLDSWGQGTLVIVSS
VL: YIQVTQSPSSLSASIGDTITVACEVSQDVGWAVNWYHQRPGRPPYNLIYTAHNLAPGVASRFRGSRVGTYFTLTINNLLPEDVGTYYCQVFDSFAPGGTRVDLR
As to B4, the results for the geometric mean IC50, TZM-bl cell pseudovirus neutralization assay in assay [3], in assay [1] and in assay [7] were 0.036 µg/mL, 0.038 µg/mL and 0.057 µg/mL, respectively. Further, the neutralizing activity, TZM-bl cell pseudovirus neutralization assay (breadth) in assay [3] was 99%; in assay [4], under 98%; in assay [1] it was 100%; in assay [5], 100%; in assay [6], 86%; in assay [7] it was 99%. For the same molecule, the GeoMean IC50, TZM-bl cell pseudovirus neutralization assay in assay [4] is 0.084 µg/mL. This molecule yielded an IC50, TZM-bl cell pseudovirus neutralization assay in assay [6] of 0.153 µg/mL.

B5: 04_B09 (antibody, V domains shown)
VH: B4 VH with R74A, Q76R, S87L, A99P, Y106F, I130V
VL: B4 VL with I15V, E24Q, A51T, H52S, S65T, G68A, D92E
As for B5, in assay [1], the geometric mean IC50, TZM-bl cell pseudovirus neutralization assay is under 0.05 µg/mL and the neutralizing activity, TZM-bl cell pseudovirus neutralization assay (breadth) was 100%.
